IC50 (read off the curve) data for one substance are collected here from patent US20150307600A1.

This assay has as its target synthetic biotinylated and pegylated phospho-tau peptide RSGYSSPG(pS)PG(pT)PGSRSR-OH (human). The assay can be described thus: MSD electrochemiluminescence competition on the biotinylated phospho-tau peptide (SEQ ID NO:39) coated on streptavidin plates; competitor: SULFO-TAG-labelled AT8.

As for “AT8 anti-tau antibody (ThermoScientific, Rockford, Ill.)”, the IC50 (read off the curve) is 40 nM.
